Here are results for 3 molecules from paper PMC3510032.

Experiment [1] concerns the target GST-Shep isoform A (Drosophila (Oregon R)). Nature of the experiment: pull-down; 2 µg GST or GST fusion protein immobilised on Glutathione-Agarose, 35 µg soluble His-Mod(mdg4)2.2 in 350 µL PBSMT (137 mM NaCl, 250 mM MgCl2, 0.3% Triton X-100, 1 mM DTT, 100 mg/mL BSA), 4°C, 2 h, 5 washes; bound protein detected by Western blotting.
Experiment [2] deals with GST-Shep isoform B/D (Drosophila (Oregon R)). The description is as above.
Experiment [3] addresses GST-Shep isoform E (Drosophila (Oregon R)). Described as above.
The target in experiment [4] is Shep (endogenous, embryo nuclear extract) (Drosophila (endogenous in embryos)) (UniProt Q8MSV2). Description: co-IP; embryo nuclear extracts in HBSMT, α-Shep or pre-immune serum pre-conjugated to protein A sepharose, 1 h at 4°C; Western blotting.
In experiment [5] the target is GST-Shep isoform A (Drosophila (Oregon R)). Nature of the experiment: pull-down; GST or GST fusion protein immobilised on Glutathione-Agarose, soluble His-Su(Hw) in HBSM (50 mM HEPES pH 6.7, 150 mM NaCl, 5 mM KCl, 2.5 mM MgCl2) with 0.3% Triton-X 100, 0.2 M KCl, 1 mM DTT, 100 mg/mL BSA, 4°C, 2 h; bound protein detected by Western blotting.
Experiment [6] has as its target GST-Shep isoform B/D (Drosophila (Oregon R)). The experiment is described as above.
The target in experiment [7] is GST-Shep isoform E (Drosophila (Oregon R)). Described as above.

In the case of His-Mod(mdg4)2.2 (natural protein), the stoichiometry N in experiment [1], in experiment [2] and in experiment [3] was 1 molar ratio throughout.
Consider “Mod(mdg4)2.2 (endogenous, embryo nuclear extract) (natural protein)”, for which the percent of total recovered in the IP in experiment [4] was 0.1%.

B1: His-Su(Hw) (natural protein)
chain: MSASKEGKEKKGKLLGVENISPPKDKRPATRMKLLNDVGAGEDSEASTTTTTSRTPSNKQEKRGSVAGSRIKILNEEILGTPKTEKRGATKSTAPAASTVKILNEKKTPSATVTAVETTKIKTSPSKRKKMEHYVLQAVKSENTKADTTVTVVTEEDDTIDFILADDEEVVPGRIENNNGQEIVVTEDDEDLGEDGDEDGEDSSGKGNSSQTKIKEIVEHVCGKCYKTFRRVQSLKKHLEFCRYDSGYHLRKADMLKNLEKIEKDAVVMEKKDICFCCSESYDTFHLGHINCPDCPKSFKTQTSYERHIFITHSEFSDFPCSICNANLRSEALLALHEEQHKSRGKPYACKICGKDFTRSYHLKRHQKYSSCSSNETDTMSCKVCDRVFYRLDNLRSHLKQHLGTQVVKKPEYMCHTCKNCFYSLSTLNIHIRTHTGEKPFDCDLCDKKFSALVALKKHRRYHTGEKPYSCTVCNQAFAVKEVLNRHMKRHTGERPHKCDECGKSFIQATQLRTHSKTHIRPFPCEQCDEKFKTEKQLERHVKTHSRTKRPVFSCAECKRNFRTPALLKEHMDEGKHSPKQQRSSMRSAVKIMERTDCAICDKNFDSSDTLRRHIRTVHECDPDDIFGVEPHPSKRAKKDIESEEVVPVALNTSAGSLISSQTDGNGVVVREFLVDEGDGAAQTITLENETYTILPLDGAIEGEQLTDEAGVKPEAKKEEAQVSPVVKKEQRKSLAASLAAAIADNLEESCSEDDFSGEILTEEDIKLKENVGKLIDMLVDPPILKKYGWPNAPEETVLCKVIENCGHDLTKGGENYAELDYGSRMREYCKLLFTVVIHNDSIKSLLNNFPIDDVIEYVLGDEDQDEGGLDKDNESHSGDEEAVSVTGETKTNEIREKPEKKEVSAKSEKKEIVGKAVDKDNSEEVVRENKKKPVGEQEKA
Consider B1, for which the stoichiometry N in experiment [5], in experiment [6] and in experiment [7] was 1 molar ratio in each case.
